Biological target: Cry1Da receptor protein(s) / binding site in Spodoptera frugiperda (fall armyworm) brush border membrane vesicles (Spodoptera frugiperda)
Experiment: homologous competition: displacement of 0.5 nM 125I-Cry1Da core toxin from 150 ug/mL S. frugiperda BBMV

Substance: Cry1Da core toxin protein (non-radiolabeled) (from UniProt P19415 28-594)
- IC50: 5 nM

Reference: patent publication US20120331589A1
